The source of these data is patent US20050256058A1 (GEORGIA TECH RESEARCH, published 2005).

Numbered stars: 1 amine (or outer) side, 2 acyl side, 3 side chain; on linkers, the order of the positions; unused ones are H or OH. Square brackets hold non-standard residues; d marks the D form. * marks the point of attachment. CH═CH‑CON(CH2Ph)2 = O=C(/C=C/*)N(Cc1ccccc1)Cc1ccccc1; CH═CH‑CON(CH3)CH2CH2Ph = CN(CCc1ccccc1)C(=O)/C=C/*; AAsp = aza-Asp, O=C(N(CC(=O)[*:3])N[*:1])[*:2]; CH═CH‑CON(CH3)CH2Ph = CN(Cc1ccccc1)C(=O)/C=C/*; Cbz = O=C(OCc1ccccc1)*

Common to all, as to assay: cell-based or functional assay
For experiment [1], the target named is T1, Caspase-3 (UniProt P42574 29-277).
T1 sequence (looked up): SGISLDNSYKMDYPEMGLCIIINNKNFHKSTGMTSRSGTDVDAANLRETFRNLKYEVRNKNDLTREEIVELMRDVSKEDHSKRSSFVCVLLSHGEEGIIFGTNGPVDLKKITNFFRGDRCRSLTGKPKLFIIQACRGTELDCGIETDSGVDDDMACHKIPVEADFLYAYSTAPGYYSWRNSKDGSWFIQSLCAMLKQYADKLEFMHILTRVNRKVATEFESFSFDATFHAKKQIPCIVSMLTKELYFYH

In the next experiment the target is Caspase-8 (UniProt Q14790 217-479).
Caspase-8, sequence (Q14790 217-479 limits assumed): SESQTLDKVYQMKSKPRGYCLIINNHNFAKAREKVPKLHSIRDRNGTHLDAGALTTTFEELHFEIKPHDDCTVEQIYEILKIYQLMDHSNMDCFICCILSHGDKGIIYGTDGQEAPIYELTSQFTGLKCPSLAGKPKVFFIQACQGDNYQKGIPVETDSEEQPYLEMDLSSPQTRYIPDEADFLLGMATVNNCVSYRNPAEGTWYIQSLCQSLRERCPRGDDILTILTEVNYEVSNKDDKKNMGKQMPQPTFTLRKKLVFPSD
A further experiment addresses T2, Caspase-6 (UniProt P55212 24-293, limits assumed).
T2 sequence (looked up): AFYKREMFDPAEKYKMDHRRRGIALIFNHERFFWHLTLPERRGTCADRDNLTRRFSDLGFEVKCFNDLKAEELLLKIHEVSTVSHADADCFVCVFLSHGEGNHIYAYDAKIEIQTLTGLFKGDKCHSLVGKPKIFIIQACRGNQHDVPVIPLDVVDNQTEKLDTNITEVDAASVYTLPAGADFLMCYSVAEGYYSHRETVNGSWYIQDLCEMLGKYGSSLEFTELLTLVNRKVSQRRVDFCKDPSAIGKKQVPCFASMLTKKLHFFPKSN

For another experiment, the target named is T3, Caspase-10 (UniProt Q92851 220-521, limits assumed).
T3 sequence (looked up): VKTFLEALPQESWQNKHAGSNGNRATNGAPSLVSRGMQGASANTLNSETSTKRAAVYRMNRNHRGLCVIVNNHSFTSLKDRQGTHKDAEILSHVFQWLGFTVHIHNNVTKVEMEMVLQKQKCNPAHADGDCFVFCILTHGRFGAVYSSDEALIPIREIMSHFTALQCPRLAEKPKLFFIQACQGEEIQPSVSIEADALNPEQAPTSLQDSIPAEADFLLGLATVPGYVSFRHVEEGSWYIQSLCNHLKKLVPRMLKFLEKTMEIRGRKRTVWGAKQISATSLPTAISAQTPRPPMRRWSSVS

A further experiment has as its target T4, Caspase-2 (UniProt P42575 170-452, limits assumed).
T4 sequence (looked up): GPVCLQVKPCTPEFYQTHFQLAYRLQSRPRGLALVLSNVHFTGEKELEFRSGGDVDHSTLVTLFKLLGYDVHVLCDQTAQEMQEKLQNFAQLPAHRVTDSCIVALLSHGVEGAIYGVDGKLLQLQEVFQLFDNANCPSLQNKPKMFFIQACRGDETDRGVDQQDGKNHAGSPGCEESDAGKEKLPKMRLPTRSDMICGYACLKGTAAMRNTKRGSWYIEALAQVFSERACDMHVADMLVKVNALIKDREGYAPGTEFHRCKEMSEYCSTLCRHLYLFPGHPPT

For another experiment, the target named is T5, Caspase-7 (UniProt P55210 24-303).
T5 sequence (looked up): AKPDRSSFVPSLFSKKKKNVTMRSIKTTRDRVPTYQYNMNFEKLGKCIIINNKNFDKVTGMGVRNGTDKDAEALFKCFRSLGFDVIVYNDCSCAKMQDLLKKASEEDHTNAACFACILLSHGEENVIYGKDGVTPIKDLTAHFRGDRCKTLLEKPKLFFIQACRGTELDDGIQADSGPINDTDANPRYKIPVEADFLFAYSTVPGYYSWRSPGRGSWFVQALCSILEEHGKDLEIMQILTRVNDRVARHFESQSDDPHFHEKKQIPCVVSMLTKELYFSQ

For the next experiment, the target named is T6, Caspase-9 (UniProt P55211 1-416, limits assumed).
T6 sequence (looked up): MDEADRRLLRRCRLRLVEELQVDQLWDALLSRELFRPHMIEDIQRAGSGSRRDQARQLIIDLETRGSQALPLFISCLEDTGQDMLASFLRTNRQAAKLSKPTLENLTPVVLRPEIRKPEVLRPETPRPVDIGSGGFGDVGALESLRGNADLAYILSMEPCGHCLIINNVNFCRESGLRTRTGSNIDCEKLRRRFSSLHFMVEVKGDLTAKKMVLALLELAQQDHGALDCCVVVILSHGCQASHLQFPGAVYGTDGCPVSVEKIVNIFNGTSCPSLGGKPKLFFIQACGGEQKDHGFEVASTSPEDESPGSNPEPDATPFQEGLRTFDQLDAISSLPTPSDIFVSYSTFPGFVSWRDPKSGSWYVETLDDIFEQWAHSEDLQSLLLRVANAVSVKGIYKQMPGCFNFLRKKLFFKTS

Experiment [2] has as its target T1, Caspase-3. This is another data set of the same source.

As for Cbz-LET[AAsp]-{CH═CH‑CON(CH3)CH2‑1‑Napth} [Cbz-Leu-Glu-Thr-AAsp-CH═CH-CON(CH3)CH2-1-Napth], the k2 with Caspase-3 [1] came out at 11200 M⁻¹ s⁻¹; with Caspase-8, 179000 M⁻¹ s⁻¹; with Caspase-6, 21700 M⁻¹ s⁻¹; with Caspase-10 it was 13600 M⁻¹ s⁻¹; with Caspase-2 it was 290 M⁻¹ s⁻¹; in the experiment with Caspase-7 it was 1100 M⁻¹ s⁻¹. This molecule also registered a k2 with Caspase-9 of 5030 M⁻¹ s⁻¹.

B1: Cbz-Asp-Glu-Val-AAsp-CH═CH-CON(CH2Ph)2 (peptide)
peptide: Cbz-DEV[AAsp]-{CH═CH‑CON(CH2Ph)2}
SMILES: CC(C)[C@H](NC(=O)[C@H](CCC(=O)O)NC(=O)[C@H](CC(=O)O)NC(=O)OCc1ccccc1)C(=O)NN(CC(=O)O)C(=O)/C=C/C(=O)N(Cc1ccccc1)Cc1ccccc1
With B1, the k2 with Caspase-3 [1] is 3e+06 M⁻¹ s⁻¹; with Caspase-8, 8600 M⁻¹ s⁻¹; in the experiment with Caspase-6 it was 5100 M⁻¹ s⁻¹; in the experiment with Caspase-10, 6300 M⁻¹ s⁻¹; with Caspase-2, 110 M⁻¹ s⁻¹; in the experiment with Caspase-7, 359000 M⁻¹ s⁻¹. Also, the k2 with Caspase-9 was 450 M⁻¹ s⁻¹. In the experiment with Caspase-3 [2], the “fold more potent inhibition than of caspase-6” value was found to be 588 fold. In the experiment with Caspase-3 [2], the “fold more potent inhibition than of caspase-8” value worked out at 348 fold.
As for Cbz-DEV[AAsp]-{CH═CH‑CONHCH2CH2Ph} [Cbz-Asp-Glu-Val-AAsp-CH═CH-CONHCH2CH2Ph], the k2 with Caspase-3 [1] is 1.95e+06 M⁻¹ s⁻¹; with Caspase-8, 129000 M⁻¹ s⁻¹; with Caspase-6 it was 3470 M⁻¹ s⁻¹; in the experiment with Caspase-10 it was 31400 M⁻¹ s⁻¹; with Caspase-2, 120 M⁻¹ s⁻¹; in the experiment with Caspase-7, 267000 M⁻¹ s⁻¹. For the same molecule, the k2 in the experiment with Caspase-9 amounted to 655 M⁻¹ s⁻¹.

B2: Cbz-Leu-Glu-Thr-AAsp-CH═CH-CON(CH2Ph)2 (peptide)
peptide: Cbz-LET[AAsp]-{CH═CH‑CON(CH2Ph)2}
SMILES: CC(C)C[C@H](NC(=O)OCc1ccccc1)C(=O)N[C@@H](CCC(=O)O)C(=O)N[C@H](C(=O)NN(CC(=O)O)C(=O)/C=C/C(=O)N(Cc1ccccc1)Cc1ccccc1)[C@@H](C)O
Consider B2, for which the k2 in the experiment with Caspase-3 [1] was 8630 M⁻¹ s⁻¹; with Caspase-8, 129000 M⁻¹ s⁻¹; in the experiment with Caspase-6, 14100 M⁻¹ s⁻¹; with Caspase-10, 8080 M⁻¹ s⁻¹; with Caspase-2, 110 M⁻¹ s⁻¹; with Caspase-7 it was 760 M⁻¹ s⁻¹. The molecule also came in with a k2 with Caspase-9 of 1100 M⁻¹ s⁻¹.

B3: Cbz-Leu-Glu-Thr-AAsp-CH═CH-CON(CH3)CH2Ph (peptide)
peptide: Cbz-LET[AAsp]-{CH═CH‑CON(CH3)CH2Ph}
SMILES: CC(C)C[C@H](NC(=O)OCc1ccccc1)C(=O)N[C@@H](CCC(=O)O)C(=O)N[C@H](C(=O)NN(CC(=O)O)C(=O)/C=C/C(=O)N(C)Cc1ccccc1)[C@@H](C)O
B3: the k2 was 6000 M⁻¹ s⁻¹ in the experiment with Caspase-3 [1]; 169000 M⁻¹ s⁻¹ with Caspase-8; 10800 M⁻¹ s⁻¹ in the experiment with Caspase-6; 8430 M⁻¹ s⁻¹ with Caspase-10; 140 M⁻¹ s⁻¹ with Caspase-2; 520 M⁻¹ s⁻¹ with Caspase-7. The molecule also gave a k2 with Caspase-9 of 4320 M⁻¹ s⁻¹.

B4: Cbz-Leu-Glu-Thr-AAsp-CH═CH-CON(CH3)CH2CH2Ph (peptide)
peptide: Cbz-LET[AAsp]-{CH═CH‑CON(CH3)CH2CH2Ph}
SMILES: CC(C)C[C@H](NC(=O)OCc1ccccc1)C(=O)N[C@@H](CCC(=O)O)C(=O)N[C@H](C(=O)NN(CC(=O)O)C(=O)/C=C/C(=O)N(C)CCc1ccccc1)[C@@H](C)O
As for B4, the k2 with Caspase-3 [1] was determined as 2620 M⁻¹ s⁻¹; with Caspase-8, 65300 M⁻¹ s⁻¹; in the experiment with Caspase-6 it was 2550 M⁻¹ s⁻¹; with Caspase-10, 6190 M⁻¹ s⁻¹; in the experiment with Caspase-2, 50 M⁻¹ s⁻¹; with Caspase-7, 290 M⁻¹ s⁻¹. The molecule further returned a k2 with Caspase-9 of 960 M⁻¹ s⁻¹.
For the molecule Cbz-LET[AAsp]-{CH═CH‑CO‑tetrahydroquinoline} [Cbz-Leu-Glu-Thr-AAsp-CH═CH-CON-tetrahydroquinoline], the k2 amounted to 12100 M⁻¹ s⁻¹ with Caspase-3 [1]; 216000 M⁻¹ s⁻¹ with Caspase-8; 13000 M⁻¹ s⁻¹ with Caspase-6; 9000 M⁻¹ s⁻¹ with Caspase-10; 92 M⁻¹ s⁻¹ with Caspase-2; 540 M⁻¹ s⁻¹ with Caspase-7. The k2 with Caspase-9 is 1660 M⁻¹ s⁻¹.
